Results: publication PMC9892492, “Bioconversion of 4-hydroxyestradiol by extradiol ring-cleavage dioxygenases from Novosphingobium sp. PP1Y” (Scientific Reports, 2023)

Assays:
Test in all cases: purified protein
Settings in all cases: 50 mM Tris/HCl pH 7.5, 25 °C, O2 co-substrate, Fe(II) enzyme
Oc1cccc(-c2ccccc2)c1O = system: Oc1cccc(-c2ccccc2)c1O
[1] = system: [H][C@@]12CCc3c(ccc(O)c3O)[C@@]1([H])CC[C@]1(C)[C@@H](O)CC[C@@]21[H]
Cc1cccc(O)c1O = system: T1, Cc1cccc(O)c1O; format: biochemical, Novosphingobium sp. PP1Y
T1 construct: full ORF in pET22b(+), E. coli BL21(DE3); Q Sepharose column purified, contaminated; no tag mentioned

purified protein [2] = substrate: Cc1cccc(O)c1O; format: biochemical, Novosphingobium sp. PP1Y
purified protein [3] = substrate: Oc1cccc(-c2ccccc2)c1O; remark: listed apart in the source
purified protein [4] = substrate: Oc1ccccc1O; format: biochemical, Novosphingobium sp. PP1Y
purified protein [5] = substrate: [H][C@@]12CCc3c(ccc(O)c3O)[C@@]1([H])CC[C@]1(C)[C@@H](O)CC[C@@]21[H]; format: biochemical, Novosphingobium sp. PP1Y
purified protein [6] = substrate: Cc1ccc(O)c(O)c1; format: biochemical, Novosphingobium sp. PP1Y

Molecule	Km (purified protein [2]) [µM]	kcat (purified protein [2]) [s⁻¹]	kcat/Km (purified protein [2]) [M⁻¹ s⁻¹]	Km (purified protein [3]) [µM]	kcat (purified protein [3]) [s⁻¹]	kcat/Km (purified protein [3]) [M⁻¹ s⁻¹]	Km (purified protein [4]) [µM]	kcat (purified protein [4]) [s⁻¹]	kcat/Km (purified protein [4]) [M⁻¹ s⁻¹]	Km (purified protein [6]) [µM]	kcat (purified protein [6]) [s⁻¹]	kcat/Km (purified protein [6]) [M⁻¹ s⁻¹]	also measured
PP28735 (Novosphingobium sp. PP1Y)	–	–	–	–	–	–	–	–	–	–	–	–	Km (Oc1cccc(-c2ccccc2)c1O): 67.90 µM; kcat (Oc1cccc(-c2ccccc2)c1O): 18.6 s⁻¹; kcat/Km (Oc1cccc(-c2ccccc2)c1O): 270000 M⁻¹ s⁻¹; Km [1]: 1.90 µM; kcat [1]: 38.2 s⁻¹; kcat/Km [1]: 2.01e+07 M⁻¹ s⁻¹; Km (Cc1cccc(O)c1O): 451 µM; kcat (Cc1cccc(O)c1O): 1.47 s⁻¹; kcat/Km (Cc1cccc(O)c1O): 3300 M⁻¹ s⁻¹
PP26077 (Novosphingobium sp. PP1Y) (protein, full ORF in pET22b(+), E. coli BL21(DE3); Q-Sepharose batch purified; no tag mentioned) MGIKALGYVVVETAKPEEWNTFLTQFAGAMRAPDAADGAALYRVDDRVFRFRIEAGTREWFVAAGYELTDRAALDALAVRIGDAARPVEWADANEAAGRGAEAMFRTSDPAGNGLEFYCGDARSDKPFVSPIGVPEFLTGDLGMGHAVFSAPDFEETIAFHRDVVGFHETDMPRFHLMGPDAPSMGFAFLHADNGRHHSIAFGEGPVPPSGAVHIMLELPDLIEVGKAHDRMKRFGYPESATLGRHVNDETTGFYVQTPSGFDLEIGCDSLIIDPASWEVTKHEGISVWGHEWAWQKALKEQQEQEKGA	2600	3	1200	35.20	8.9	250000	–	–	–	–	–	–	–
PP00124 (Novosphingobium sp. PP1Y) (protein, full ORF in pET22b(+), E. coli BL21(DE3); Q-Sepharose batch purified; no tag mentioned) MVAVTELGYLGLTVTDLDAWRSYAAEVAGMEIVDEGEGDCLYLRMDQWHHRIALHAGDTDDLAYLGWRVAGPVEFDAMVAQLAAAGIAVEVASEAEARERRVLGLAKLADPGGNPTEIFYAPQVDTHKPFHPGRPMFGRFLTGSEGIGHCILRQDDVAAAAAFYGLLGLRGSVEYHLQLPNGMVAQPYFMHCNERQHSIAFGLGPMEKRINHLMFEYTDLDDLGLAHDIVRARKIDVALQLGKHANDQALTFYCANPSGWLWEFGWGARKAPSQQEYYTRDIFGHGNEAAGYGMDIPLG	2.90	10.2	3.53e+06	3.70	13.8	3.72e+06	38.20	5.44	140000	1.80	2.97	1.65e+06	Km (purified protein [5]): 0.75 µM; kcat (purified protein [5]): 8.6 s⁻¹; kcat/Km (purified protein [5]): 1.14e+07 M⁻¹ s⁻¹
PP00193 (Novosphingobium sp. PP1Y) (protein, full ORF in pET22b(+), E. coli BL21(DE3); Q-Sepharose batch purified; no tag mentioned) MALTGVLRPGYVQLRVLDLDEAIQHYRDRIGLNLVSVEDGRAFFQAFDEFDRHSIILREADSAGLDRMAFKVAKDADLDHFAERLLDMGVHVDIIPAGEDPGVGRKIRFNTPTAHVFDLYAEMELSETGPAVRNPDVWIAEPRGMRATRFDHCALNGVDISASAKIFVEALDFSVTEELVDEASGTRLGIFLSCSNKAHDVAFLGYPEDGRIHHTSFNLESWHDVGHAADIISRYDISLDIGPTRHGITRGQTIYFFDPSGNRNETFSGGYTYYPDNPRRMWQAENAGKAIFYYEKALNDRFMTVNT	3.17	225	7.09e+07	3.15	30.5	9.7e+06	1.69	194	1.15e+08	1.89	120	6.35e+07	–
